# T1: IL-6/IL-6 R complex with gp130 (Homo sapiens, UniProt P08887)
# T1 sequence (P08887 20-468): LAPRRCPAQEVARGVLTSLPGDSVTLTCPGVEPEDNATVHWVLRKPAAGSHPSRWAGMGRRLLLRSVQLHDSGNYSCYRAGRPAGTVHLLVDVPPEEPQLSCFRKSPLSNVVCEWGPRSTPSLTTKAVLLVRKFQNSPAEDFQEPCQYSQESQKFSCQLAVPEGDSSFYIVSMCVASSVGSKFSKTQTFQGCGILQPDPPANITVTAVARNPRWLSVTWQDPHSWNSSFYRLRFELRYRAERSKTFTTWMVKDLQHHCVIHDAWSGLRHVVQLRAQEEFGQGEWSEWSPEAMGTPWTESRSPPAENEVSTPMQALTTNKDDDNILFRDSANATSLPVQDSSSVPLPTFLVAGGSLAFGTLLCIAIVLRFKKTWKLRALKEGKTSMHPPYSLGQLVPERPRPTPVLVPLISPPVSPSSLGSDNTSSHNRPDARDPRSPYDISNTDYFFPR
# T1 sequence (P40189 23-918 partner): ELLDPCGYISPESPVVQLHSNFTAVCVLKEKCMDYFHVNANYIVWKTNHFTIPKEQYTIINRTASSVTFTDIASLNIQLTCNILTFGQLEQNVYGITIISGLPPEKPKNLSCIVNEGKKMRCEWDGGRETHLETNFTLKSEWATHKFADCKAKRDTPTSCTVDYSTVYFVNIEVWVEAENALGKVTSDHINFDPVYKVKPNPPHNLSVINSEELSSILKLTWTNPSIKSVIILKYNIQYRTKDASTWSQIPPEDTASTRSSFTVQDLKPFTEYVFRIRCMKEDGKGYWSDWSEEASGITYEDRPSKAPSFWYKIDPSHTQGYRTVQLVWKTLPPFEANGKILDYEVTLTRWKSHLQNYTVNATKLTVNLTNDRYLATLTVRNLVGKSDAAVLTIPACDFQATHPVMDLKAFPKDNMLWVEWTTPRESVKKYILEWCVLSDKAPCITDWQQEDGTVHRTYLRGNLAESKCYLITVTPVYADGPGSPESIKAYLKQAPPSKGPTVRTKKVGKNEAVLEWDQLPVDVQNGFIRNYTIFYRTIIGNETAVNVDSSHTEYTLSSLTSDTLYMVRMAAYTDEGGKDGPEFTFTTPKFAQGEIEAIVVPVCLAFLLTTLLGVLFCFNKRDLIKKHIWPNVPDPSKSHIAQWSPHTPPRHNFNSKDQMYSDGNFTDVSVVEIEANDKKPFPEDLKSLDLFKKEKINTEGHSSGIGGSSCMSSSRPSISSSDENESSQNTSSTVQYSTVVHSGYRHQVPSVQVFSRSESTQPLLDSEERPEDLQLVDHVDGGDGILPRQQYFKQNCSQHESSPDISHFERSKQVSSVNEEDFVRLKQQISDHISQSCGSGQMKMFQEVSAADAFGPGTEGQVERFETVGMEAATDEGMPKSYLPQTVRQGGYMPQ
# T2: IL-6R (Homo sapiens, UniProt P08887)
# T2 sequence (P08887 20-468): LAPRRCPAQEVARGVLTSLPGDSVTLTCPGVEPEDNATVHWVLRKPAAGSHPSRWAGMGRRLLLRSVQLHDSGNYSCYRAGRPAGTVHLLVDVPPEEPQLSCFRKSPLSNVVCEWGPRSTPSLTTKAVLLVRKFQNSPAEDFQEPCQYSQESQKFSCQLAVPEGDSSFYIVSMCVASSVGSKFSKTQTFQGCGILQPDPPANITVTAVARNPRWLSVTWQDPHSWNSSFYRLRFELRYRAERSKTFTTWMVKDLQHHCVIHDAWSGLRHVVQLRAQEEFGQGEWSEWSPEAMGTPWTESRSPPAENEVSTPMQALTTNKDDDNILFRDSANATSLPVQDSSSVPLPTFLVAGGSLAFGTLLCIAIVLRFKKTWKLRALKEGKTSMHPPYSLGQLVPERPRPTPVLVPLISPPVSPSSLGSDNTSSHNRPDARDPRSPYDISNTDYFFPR
# B1: XBP-N188: XBP-1 deletion mutant consisting of the N terminal 188 amino acids of the spliced form (protein)
# chain: MVVVAAAPSAATAAPKVLLLSGQPASGGRALPLMVPGPRAAGSEASGTPQARKRQRLTHLSPEEKALRRKLKNRVAAQTARDRKKARMSELEQQVVDLEEENHKLQLENQLLREKTHGLVVENQELRTRLGMDTLDPDEVPEVEAKGSGVRLVAGSAESAAGAGPVVTSPEHLPMDSDTVASSDSESD
# B2: IL-4: multi-functional cytokine; recombinant IL-4 used at 20 ng/ml (protein, UniProt P05112 25-153, looked up)
# Interleukin-4: HKCDITLQEIIKTLNSLTEQKTLCTELTVTDIFAASKNTTEKETFCRAATVLRQFYSHHEKDTRCLGATAQQFHRHKQLIRFLKRLDRNLWGLAGLNSCPVKEANQSTLENFLERLKTIMREKYSKCSS
# B3: XBP-N136: XBP-1 deletion mutant consisting of the N terminal 136 amino acids of the spliced form (protein, UniProt O35426 1-136, looked up, fragment)
# chain: MVVVAAAPSAATAAPKVLLLSGQPASGGRALPLMVPGPRAAGSEASGTPQARKRQRLTHLSPEEKALRRKLKNRVAAQTARDRKKARMSELEQQVVDLEEENHKLQLENQLLREKTHGLVVENQELRTRLGMDTLD
# modifications: XBP-1s
# notes: XBP-1 deletion mutant consisting of the N terminal 136 amino acids of the spliced form
# Legend:
# [1] = molecular target: T1, IL-6/IL-6 R complex with gp130; details: IL-6/IL-6R complex on the membrane with gp130; read-out: Kd (high affinity); cited from earlier work
# IL-6R = molecular target: T2, IL-6R; details: IL-6R alone; read-out: Kd (low affinity); cited from earlier work
# XBP-1 mRNA splicing = XBP-1 mRNA splicing and XBP-1s protein in purified murine B cells (RT-PCR, Western blot); assay type: cell-based; details: for XBP-1 mRNA splicing (RT-PCR): purified murine B cells, 24-72 h
# Experimental: (§1) Mouse splenocytes or purified B cells (purified mature B cells were isolated from spleen and lymph nodes by magnetic CD43 depletion or B220 magnetic bead selection, Miltenyi Biotech, Auburn Calif.) were plated at 1×10^6 cells/ml in complete media containing RPMI 1640 supplemented with 10% fetal calf serum (FBS)(Hyclone Laboratories), glutamine (2 mM), penicillin (50 units/ml), streptomycin (50 μg/ml), Hepes (100 mM), nonessential amino acids (1×) sodium pyruvate (1 mM) and β-ME (50 μM) and stimulated with anti-CD40(1 μg/ml)(Pharmigen) or LPS (20 μg/ml)(Sigma). Cytokines (R&D Systems, Minneapolis, Minn.) were used at IL-4 (20 ng/ml), IL-2 (20 ng/ml), Il-5 (20 ng/ml), IL-6 (20 ng/ml ), IL-10 (20 ng/ml ) and IL-13 (20 ng/ml). Stimulated B cells were split to a cell concentration of 1×10^6 cells/ml with fresh media every 24 h. The BCL1 (CWS13.20-3B3 ATCC CRL 1699) cell line was cultured in RPMI media supplemented with 10% FBS, gentamicin (20 μg/ml), and β-ME (50 μM). To induce differentiation cells were plated at 2×10^5 cells/ml and treated with recombinant mouse IL-2 and IL-5 (20 ng/ml) (R&D systems).
# Total RNA was isolated using TriZo1 (Gibco-BRL) or Qiashedder/Rneasy RNA purification columns (Quiagen). Northern Blots were performed as described (Rengarajan et al., 2000 Immunity. 12:293-300). […] The following probes were used after ^32P-radiolabeling with the ReadyPrime labeling system (Amersham-Pharmacia): XBP-1 (15-830 of the murine coding region), GRP94 and GRP78 (both a kind gift of R. J. Kaufman Univ. of Michigan (Lee et al., 2002)), Blimp (Nco1-Sca1 fragment), c-myc cDNA and Il-6 cDNA . […]
# The UPR is induced in cells that detect irregular amounts of unfolded or unassembled protein in the lumen of the ER. […] Total RNAs were prepared at the indicated time point and XBP-1 mRNA levels (a) were determined by Northern blot analysis with γ-actin control (b). […] XBP-1s protein levels were also measured by Western blot analysis (d). […] In panel (C) XBP-1s protein levels were measured by Western blot analysis in the cells stimulated as indicated for 72 hours.
# spliced XBP-1 = assay: Inhibition of transactivation function of spliced XBP-1, luciferase in NIH 3T3 cells; assay type: cell-based; details: NIH 3T3, 200 ng spliced XBP-1, 200 ng mutant
# Experimental: Versions of XBP-1 with various deletions of the C terminal transcription activating domain (e.g., consisting of the N terminal 225, 188, or 136 amino acids of the spliced form of XBP-1) that expressed high levels of protein by western analysis were created. The proteins were tested for their ability to inhibit the transactivation function of spliced XBP-1. Both the 188 and 136 N terminal mutants were extremely potent inhibitors (effective at a 1:1 ratio) of the spliced XBP-1. NIH 3T3 cells expressing XBP-1uc constructs were transfected with 200 ng of spliced XBP-1, yielding a relative luciferase activity of 44.5. 200 ng of XBP-N188 lowered the luciferase level to 1.8 and 200 ng of XBP-N136 lowered the luciferase activity to 2.2.
# XBP-1 mRNA = XBP-1 mRNA induction by cytokines in purified splenic B cells (Northern blot); assay type: cell-based, mouse
# Experimental: as §1
# Total RNA was isolated using TriZo1 (Gibco-BRL) or Qiashedder/Rneasy RNA purification columns (Quiagen). Northern Blots were performed as described (Rengarajan et al., 2000 Immunity. 12:293-300). Briefly, 7-10 μg RNA were electrophoresed on 1.2% agarose, 6% formaldehyde gels transferred onto Genescreen membrane (NEN) and covalently bound to the membrane using UV Stratalinker (Stratagene). The following probes were used after ^32P-radiolabeling with the ReadyPrime labeling system (Amersham-Pharmacia): XBP-1 (15-830 of the murine coding region), GRP94 and GRP78 (both a kind gift of R. J. Kaufman Univ. of Michigan (Lee et al., 2002)), Blimp (Nco1-Sca1 fragment), c-myc cDNA and Il-6 cDNA . […]
# Since XBP-1 is required for terminal B cell differentiation, it was important to identify the stimuli that regulate XBP-1 gene expression. A plethora of cytokines (IL-2, IL-4, IL-5, IL-6, IL-10, IL-13) has been implicated in plasma cell differentiation both in vitro and in vivo (reviewed in Calame, K. L. (2001 Nat. Inimunol. 2: 1103-1108; Liu, Y. J., and Banchereau, J. (1997). Sem Immunol 9: 235; Zubler, 1997Sem. Hematol 34:13). It was possible that these cytokines effected terminal B cell differentiation by modulating XBP-1 gene expression. Thus, the ability of these cytokines to upregulate XBP-1 mRNA transcripts in B cells was tested. Purified splenic B cells were cultured for 24 h in the presence or absence of various cytokines and XBP-1 expression determined by Northern blot analysis. […] XBP-1 mRNA levels were determined by Northern blot analysis with γ-actin as control. […] XBP-1 mRNA levels were determined as above. […]
# [2] = purified B cells treated with IL-4
molecule,measurement,setting,value
IL-6: multi-functional cytokine; mature human IL-6 is a 185 amino acid polypeptide,Kd,[1],~0.01 nM
same,Kd,IL-6R,~1 nM
lipopolysaccharide [LPS],spliced XBP-1 protein production,XBP-1 mRNA splicing; in the absence of other stimuli,competent to produce substantial amounts of spliced XBP-1 protein
same,XBP-1 mRNA splicing (RT-PCR),XBP-1 mRNA splicing,an additional band of 145 bp corresponding to the spliced form of XBP-1 mRNA
B1,relative luciferase activity,spliced XBP-1,1.8
B2,XBP-1 mRNA splicing (RT-PCR),XBP-1 mRNA splicing,unable to induce splicing
same,time at which XBP-1 transcript increase is apparent,XBP-1 mRNA; [2],≤ 1 h
same,time of peak of XBP-1 transcripts,XBP-1 mRNA; [2],around 8 h
same,XBP-1 transcript induction,"XBP-1 mRNA; purified splenic B cells, cytokines 20 ng/ml, 24 h",induced a significant amount of XBP-1 ranscript
B3,relative luciferase activity,spliced XBP-1,2.2
